# According to patent EP4748847A1, “PEPTIDE COMPLEX HAVING VEGFR -2 AGONIST ACTIVITY” (Peptidream Inc, priority 2023, dated 2025):
# Read-outs that look alike come from different tables or passages of the source. *1 amine or outer side, *2 acyl side, *3 side chain or, on linkers, in order; H or OH if unused. Bridges are numbered along the chain shown (N, C = ends). Primed or numbered codes have the meaning given here. Where no end group is shown, it is not given here. [ ]: non-standard residue; d: D form. CO(CH2CH2O)9CH2CH2CO = O=C(CCOCCOCCOCCOCCOCCOCCOCCOCCOCCC(=O)[*:2])[*:1]; hTyr = N[C@@H](CCc1ccc(O)cc1)C(=O)O; Cha = N[C@@H](CC1CCCCC1)C(=O)O; Chg = N[C@H](C(=O)O)C1CCCCC1; Tle = CC(C)(C)[C@H](N)C(=O)O; 3Py6NH2 = not defined here; 4Py2NH2 = not defined here; F4aao = not defined here; Ahp′ = not defined here; Atb = not defined here; Yph = not defined here
# Legend:
# Experiment in all cases: cell-based or functional assay
# VEGFR-2 [1] = molecular target: T1, VEGFR-2 (human, UniProt P35968 20-1356)
# VEGFR-2 [2] = molecular target: T1, VEGFR-2; remark: listed apart in the source
# VEGFR-2 [3] = molecular target: T1, VEGFR-2; remark: listed apart in the source
# T1 sequence (P35968 20-1356): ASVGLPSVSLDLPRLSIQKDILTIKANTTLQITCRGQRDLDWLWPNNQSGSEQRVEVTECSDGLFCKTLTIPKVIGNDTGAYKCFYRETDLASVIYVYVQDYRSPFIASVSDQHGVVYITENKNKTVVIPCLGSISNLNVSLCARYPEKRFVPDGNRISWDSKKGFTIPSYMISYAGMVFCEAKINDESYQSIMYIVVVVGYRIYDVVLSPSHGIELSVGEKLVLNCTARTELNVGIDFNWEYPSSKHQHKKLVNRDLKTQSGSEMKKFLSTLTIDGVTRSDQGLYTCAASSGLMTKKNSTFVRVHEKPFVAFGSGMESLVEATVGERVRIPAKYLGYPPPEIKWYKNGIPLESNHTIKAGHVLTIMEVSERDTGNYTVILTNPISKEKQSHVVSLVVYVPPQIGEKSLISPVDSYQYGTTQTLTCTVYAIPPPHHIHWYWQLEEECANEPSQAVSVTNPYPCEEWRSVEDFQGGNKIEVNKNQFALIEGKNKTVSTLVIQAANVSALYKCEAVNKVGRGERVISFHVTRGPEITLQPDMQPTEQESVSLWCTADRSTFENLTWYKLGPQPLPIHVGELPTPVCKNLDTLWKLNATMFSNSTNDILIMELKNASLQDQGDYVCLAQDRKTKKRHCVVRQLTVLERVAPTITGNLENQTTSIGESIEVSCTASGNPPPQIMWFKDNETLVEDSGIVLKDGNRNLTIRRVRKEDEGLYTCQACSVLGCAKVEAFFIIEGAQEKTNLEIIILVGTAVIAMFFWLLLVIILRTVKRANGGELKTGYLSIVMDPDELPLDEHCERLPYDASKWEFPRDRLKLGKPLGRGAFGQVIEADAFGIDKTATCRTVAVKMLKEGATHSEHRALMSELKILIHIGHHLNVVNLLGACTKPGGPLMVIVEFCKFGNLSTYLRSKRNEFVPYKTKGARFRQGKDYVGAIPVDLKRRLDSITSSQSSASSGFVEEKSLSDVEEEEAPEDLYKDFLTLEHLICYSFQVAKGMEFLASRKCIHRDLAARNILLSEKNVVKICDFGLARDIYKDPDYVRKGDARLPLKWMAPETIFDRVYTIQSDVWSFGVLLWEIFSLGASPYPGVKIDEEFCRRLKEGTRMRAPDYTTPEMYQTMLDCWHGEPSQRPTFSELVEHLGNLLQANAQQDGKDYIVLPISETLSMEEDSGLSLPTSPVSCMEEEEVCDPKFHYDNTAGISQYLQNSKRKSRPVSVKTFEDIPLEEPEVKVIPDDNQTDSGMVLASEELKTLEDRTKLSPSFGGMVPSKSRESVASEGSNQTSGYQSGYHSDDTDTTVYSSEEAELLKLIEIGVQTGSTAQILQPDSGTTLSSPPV
Binder,"pERK Assay Results (AlphaLISA p-Erk1/2, HUVEC) (VEGFR-2 [1])","proliferation (HUVEC, CellTiter-Glo) (VEGFR-2 [2])","pERK Assay Results (AlphaLISA p-Erk1/2, HUVEC) (VEGFR-2 [3])"
{CH2CO}-WW[Tle]DVKDD[Atb]YF[hTyr]DCG-NH2 (thioether N-14; reading uncertain; also: homodimer: Lys6 joined to Lys6 of second copy by OCOPEG17OCO (Linker Structure No. 6)) [Peptide complex Dimer Structure No. 52],≥ 50 % activity at 5 nM,≥ 50 % activity at 5 nM,
{CH2CO}-WW[Tle]DVKDDLYF[hTyr]SCG-NH2 (thioether N-14; also: homodimer: Lys6 joined to Lys6 of second copy by cPEG17c (Linker Structure No. 4)) [Peptide complex Dimer Structure No. 33],≥ 50 % activity at 10 nM,≥ 50 % activity at 10 nM,
{CH2CO}-WWVDVK(CO(CH2CH2O)9CH2CH2CO)DDLYFVDCG-NH2 (thioether N-14; also: dimer: Lys6 joined to Lys6 of second copy by cPEG9c) [Peptide complex Dimer Structure No. 13],,< 50 % activity at 100 nM,≥ 50 % activity at 10 nM
{CH2CO}-WW[Tle]DVKDD[Atb]YF[hTyr]DCG-NH2 (thioether N-14; reading uncertain; also: homodimer: Lys6 joined to Lys6 of second copy by OCOPEG13OCO (Linker Structure No. 5)) [Peptide complex Dimer Structure No. 49],≥ 50 % activity at 20 nM,≥ 50 % activity at 5 nM,
{CH2CO}-WWVDVKDDLY[Yph]VDCG-NH2 (thioether N-14; not fully specified (residue 6); reading uncertain; also: homodimer: Lys6 joined to Lys6 of second copy by cPEG17c (Linker Structure No. 4)) [Peptide complex Dimer Structure No. 16],,,≥ 50 % activity at 100 nM
{CH2CO}-WW[Tle]DVKDDLY[Yph][hTyr]DCG-NH2 (thioether N-14; not fully specified (residue 6); reading uncertain; also: homodimer: Lys6 joined to Lys6 of second copy by cPEG17c (Linker Structure No. 4)) [Peptide complex Dimer Structure No. 20],,,≥ 50 % activity at 10 nM
{CH2CO}-WW[Tle]DVKDDLY[F4G]VDCG-NH2 (thioether N-14; also: homodimer: Lys6 joined to Lys6 of second copy by OCOPEG17OCO (Linker Structure No. 6)) [Peptide complex Dimer Structure No. 51],≥ 50 % activity at 5 nM,≥ 50 % activity at 5 nM,
{CH2CO}-[4Py2NH2]W[Tle]DVKDDLYF[hTyr]DCG-NH2 (thioether N-14; not fully specified (residue 6); reading uncertain; also: homodimer: Lys6 joined to Lys6 of second copy by cPEG17c (Linker Structure No. 4)) [Peptide complex Dimer Structure No. 22],,,≥ 50 % activity at 10 nM
{CH2CO}-WW[Tle]D[alT]KDDLYF[hTyr]DCG-NH2 (thioether N-14; not fully specified (residue 6); also: homodimer: Lys6 joined to Lys6 of second copy by cPEG17c (Linker Structure No. 4)) [Peptide complex Dimer Structure No. 27],≥ 50 % activity at 10 nM,≥ 50 % activity at 10 nM,
{CH2CO}-WW[Tle]DVKDD[Atb]Y[F4G][hTyr]DCG-NH2 (thioether N-14; reading uncertain; also: dimer: Lys6 joined to Lys6 of second copy by OCOPEG17OCO (Linker Structure No. 6)) [Peptide complex Dimer Structure No. 53],≥ 50 % activity at 5 nM,≥ 50 % activity at 5 nM,
"{CH2CO}-WW[Tle]DVKDDNYF[hTyr]DCG-NH2 (thioether N-14; not fully specified (residues 5, 6); also: dimer joined at Lys6 side chains by cPEG17c) [Peptide complex Dimer Structure No. 29]",≥ 50 % activity at 10 nM,≥ 50 % activity at 10 nM,
{CH2CO}-WWVDV[Cha]DDLYFVDCG (thioether N-14; also: dimer: C-terminus joined to second copy by PEG12c-K-PEG12c) [Peptide complex Dimer Structure No. 5],,< 50 % activity at 100 nM,≥ 50 % activity at 10 nM
{CH2CO}-[Hcit]W[Tle]DVKDDLYF[hTyr]DCG-NH2 (thioether N-14; not fully specified (residue 6); also: homodimer: Lys6 joined to Lys6 of second copy by cPEG17c (Linker Structure No. 4)) [Peptide complex Dimer Structure No. 21],,,≥ 50 % activity at 10 nM
{CH2CO}-WWVDVKDDLY[F4G]VDCG-NH2 (thioether N-14; not fully specified (residue 6); also: homodimer: Lys6 joined to Lys6 of second copy by cPEG17c (Linker Structure No. 4)) [Peptide complex Dimer Structure No. 17],,,≥ 50 % activity at 100 nM
{CH2CO}-WW[Tle]DVKDDLYF[Chg]DCG-NH2 (thioether N-14; not fully specified (residue 6); also: homodimer: Lys6 joined to Lys6 of second copy by cPEG17c (Linker Structure No. 4)) [Peptide complex Dimer Structure No. 31],≥ 50 % activity at 10 nM,≥ 50 % activity at 10 nM,
{CH2CO}-[3Py6NH2]W[Tle]DVKDDLYF[hTyr]DCG-NH2 (thioether N-14; not fully specified (residue 6); reading uncertain; also: homodimer: Lys6 joined to Lys6 of second copy by cPEG17c (Linker Structure No. 4)) [Peptide complex Dimer Structure No. 23],,,≥ 50 % activity at 10 nM
{CH2CO}-WWVDVKDDLYF[hTyr]DCG-NH2 (thioether N-14; not fully specified (residue 6); also: homodimer: Lys6 joined to Lys6 of second copy by cPEG17c (Linker Structure No. 4)) [Peptide complex Dimer Structure No. 18],,,≥ 50 % activity at 100 nM
{CH2CO}-WW[Tle]DVKNDLYF[hTyr]DCG-NH2 (thioether N-14; also: homodimer: Lys6 joined to Lys6 of second copy by cPEG17c (Linker Structure No. 4)) [Peptide complex Dimer Structure No. 47],≥ 50 % activity at 20 nM,≥ 50 % activity at 1.25 nM,
{CH2CO}-[W7N]W[Tle]DVKDDLYF[hTyr]DCG-NH2 (thioether N-14; also: homodimer: Lys6 joined to Lys6 of second copy by cPEG17c (Linker Structure No. 4)) [Peptide complex Dimer Structure No. 46],≥ 50 % activity at 20 nM,≥ 50 % activity at 1.25 nM,
{CH2CO}-[F4aao]W[Tle]DVKDDLYF[hTyr]DCG-NH2 (thioether N-14; not fully specified (residue 6); reading uncertain; also: homodimer: Lys6 joined to Lys6 of second copy by cPEG17c (Linker Structure No. 4)) [Peptide complex Dimer Structure No. 24],,,≥ 50 % activity at 10 nM
{CH2CO}-WW[Tle]DVKDDLY[Yph]VDCG-NH2 (thioether N-14; not fully specified (residue 6); reading uncertain; also: homodimer: Lys6 joined to Lys6 of second copy by cPEG17c (Linker Structure No. 4)) [Peptide complex Dimer Structure No. 19],,,≥ 50 % activity at 100 nM
{CH2CO}-WWVDVKDDLYFVDCG-NH2 (thioether N-14; also: homodimer: Lys6 joined to Lys6 of second copy by cPEG17c (Linker Structure No. 4)) [Peptide complex Dimer Structure No. 42],≥ 50 % activity at 20 nM,≥ 50 % activity at 1.25 nM,
{CH2CO}-WW[Tle]DVKDDLY[F4G]VDCG-NH2 (thioether N-14; also: homodimer: Lys6 joined to Lys6 of second copy by cPEG17c (Linker Structure No. 4)) [Peptide complex Dimer Structure No. 43],≥ 50 % activity at 5 nM,≥ 50 % activity at 5 nM,
{CH2CO}-WWVDV[Ahp′]DDLYFVDCG (thioether N-14; reading uncertain; also: dimer joined at Gly15 C-termini by PEG12c-K-PEG12c) [Peptide complex Dimer Structure No. 2],,< 50 % activity at 100 nM,≥ 50 % activity at 100 nM
{CH2CO}-WW[Tle]DVKDDLY[F4G][hTyr]DCG-NH2 (thioether N-14; also: homodimer: Lys6 joined to Lys6 of second copy by cPEG17c (Linker Structure No. 4)) [Peptide complex Dimer Structure No. 45],≥ 50 % activity at 20 nM,≥ 50 % activity at 5 nM,
